The DeepSol protein solubility set

Assay: soluble on expression in E. coli; label from the status in PepcDB or PDB records

Sequence | soluble on expression in E. coli
MGSDKIHHHHHHMSAPTITTLGEFLQAGQAEYKIFDIGRCLTELSQEEFAAIEQQQRPYPYPIARQAQLAILFQHKQHDQQPFIWFLQFPLDERGLLNIAARNQYLEYVVNALGHEITGEMTEEQQKQLQQNPYLLTPNEQQRAALHARVQRQQKLSPSIHFETAEAYLKQPESGIDWQQMGLQGLHDCAARLEQLPELSKAIATHFSHYPSAVRQPLAVALEQQSLTPPVRDALLQNLESSNAQLCTDSLRALASASAHPRVKKAVNKLVPHANADQLVVIAARLWPVLCEEQNLLRYLDAIAELDNSLFDALFQDIIALPDIRPLLLSIIAQQKQSAAVNEALNRLKQQTQGS | not soluble
MARINRISITLCALLFTTLPLTPMAHASKQARESSATTHITKKADKKKSTATTKKTQKTAKKAASKSTTKSKTASSVKKSSITASKNAKTRSKHTVNKTASASLTEKCTKRKGYKSHCVKVKNAASGTLADAHKAKVQKATKVAMNKLMQQIGKPYRWGGSSPRTGFDCSGLVYYAYKDLVKIRIPRTANEMYHLRDAAPIERSELKNGDLVFFRTQGRGTADHVGVYVGNGKFIQSPRTGQEIQITSLSEDYWQRHYVGARRVMTPKTLR | soluble
MPRSSLRLLAKPLLESRRGFCTSSDKIVASVLFERLRVVIPKPDPAVYAFQEFKFNWQQQFRRRYPDEFLDIAKNRAKGEYQMDYVPAPRITEADKNNDRKSLYRALDKKLYLLIFGKPFGATSDKPVWHFPEKVYDSEPTLRKCAESALKSVVGDLTHTYFVGNAPMAHMAIQPTEEMPDLPSYKRFFFKCSVVAASKYDISNCEDFVWVTKDELLEFFPEQAEFFNKMIIS | soluble
EEYPDGFAPMKPDQAEEAVLAGIALSACLIETNRRERFADRLRAAAGALREDWVVKIGDNHVAARLLDGLVTIPFDMDIAIEGAIEGESKSVVTDWR | not soluble
NQKDFDRTMVIDERTELVARTITDYLKRTNPMDKTIVFCNDIDHAERMRRALVNLNPEQVKKNDKYVMKITGDDEIGKAQLDNFINPKKPYPVIATTSELMTTGVDAKTCKLVVLDQNIQSMTKFKQIIGRGTRIDERYGKLWFTILDFKKATELFADERFDGIPEKVMDTTPEDIAD | not soluble
MGSDKIHHHHHHMLDKIELFILDMDGTFYLDDSLLPGSLEFLETLKEKNKRFVFFTNNSSLGAQDYVRKLRNMGVDVPDDAVVTSGEITAEHMLKRFGRCRIFLLGTPQLKKVFEAYGHVIDEENPDFVVLGFDKTLTYERLKKACILLRKGKFYIATHPDINCPSKEGPVPDAGSIMAAIEASTGRKPDLIAGKPNPLVVDVISEKFGVPKERMAMVGDRLYTDVKLGKNAGIVSILVLTGETTPEDLERAETKPDFVFKNLGELAKAVQ | not soluble
MGSDKIHHHHHHMRSPNFYTYAFLNTPDVPLRLPSGNLGQLLLINGNNISAVVEPGISLESSQNNDEEVIKMVLAHDRVICELSQQTTVLPLRFGTYFNSEETLLNHIESHAQEYQKKLDNIQGKTEYTLKLIPRKFEELAKISGGHGRDYFLAKKLHYEHQKSFIGDQNREKHHLINLMMDIYRSSAIIQDYVEEVRLHLLVDRHDKALLFKQVLTLQEKCPHWNLILGEPLPPYHFV | not soluble
MAHHHHHHMLRFTVPALVVFQNAYAPRVLNRMTPDRMELTMLILKERKKKVRYLGSNFQGFNDRVHLFNAQGGVRRGTRYIIETHHNRIQFKHRSRNNSMVDVRAVKMAGSQYDSIGNYTRMTWDNSLCTTNLLSDPNFKRHFKNMPKEETIGVLEEWGVRYILLDEIRKP | not soluble
MGSDKIHHHHHHMSHTLYEASVIRVQRCELAVPGSNPGMFEKALKSGVDFVFLDLEDAVAPDDKLTARKNVIEALNDLDWRGHGVTVSVRINGLDTQFMVRDVVDVVEKAGHKLDTILIPKVGVYSDVYMVEAMLNQLEMQQGLKNRIGIEALIETALGMANVEDIARHGVRGRLEALHFGVADYAASNRARTTNIGGLNPDYPGDQWHAAISRMTVACRAYGLRPIDGPFGDIQDPEGYKAAARRAAALGCEGKWAIHPSQIDLANEVFTPPPSEVEKAQRILAALQEAAAQGKGAAALDGRLIDAASARMANNVVKMAEAIGATAT | not soluble
MSLQGLWIYPEDTEVLGVACKSLLKALTPRYQKVALFSPISGGCESLEECESLNPLEFHSAISKQKALELASTAQEELLFETILKRYDELQSTHDFVINLGCAPKFFLNAPLDLNTILAKHLNASVVAVAQTSLEYLKAMHSHILKKEAPFAVGLFAGETLEKPHFLSMSLCKQQCELEADLIESVLQIKSEIITPLAFQRGLEKKAKKQIKKVVLPESEKMKGFEGHHHHHH | not soluble
SNAMTDAVLELPAATFDLPLSLSGGTQTTLRAHAGHWLVIYFYPKDSTPGATTEGLDFNALLPEFDKAGAKILGVSRDSVKSHDNFCAKQGFAFPLVSDGDEALCRAFDVIKEKNMYGKQVLGIERSTFLLSPEGQVVQAWRKVKVAGHADAVLAALKAHAKQ | soluble
MTSISSEYKLPEKTNTVSTNNSSLGKDEFLKILMTQVQNQDPLNPIDDKEFISQMATFSSLEQMMNLNTTMTQFVENQDPFTTYVDWMGKEVSWTDGKSATDKTGTVSSVKHFKGNYYLVLDDGTEISPANVMSVGQSSKLEHHHHHH | soluble
MDNEFTSPVYGVKAVPVERIRANSYNPNVTAPPEMRLLELSIWEDGYTMPCVCYYIEKEDVYELVDGYHRYKVMMTSPRIYKRENGLLPVTVIRKDLAERMASTIRHNRARGMHKIELMTRLVGELTRSGMSDSWIRRNLGMDKDELLRLKQISGLAELFADKEFRKAVE | not soluble
MWLEKFKNKNKETKYRYYEKYKDPLTAKWRRVSVVLNKNGKQSQKEAQRLLNERIEAKLNDKTPTTLKSLTFHVACDEWFQSYIKTSGSKRTTIKTKLSKLNTLKKFVDEDILINKITLSYAQQVFDEMDNKGYVYQVNKDALSIFKNVFEYTRRIYKLQDLEFLKDITLNKRIKSYDEVKAKRNKYLELNEIQSIIKDINTKAQKMHSGIHKRFYLFVALMTEFQALNGMRIGEMLAIQNEDIDFDNKSLNINGTIHWFHDESGGFGVKDTTKTESSYRTIGLSSRSCEILKKAILENKKDSKWNDGYLNRNFVFTNHKGNPMQTERFNKILREAAKDVGIDKEVSSHILRHSHISLLSQQGVSLKAIMDRVGHSDHRTTLSIYSHVTEQMDKDMMNKLEQVKLG | not soluble
MGHHHHHHSHMAFCAILLVPSLCRMPSLPTSPWAFPVHWAGFMFKPLDWQGNDFFPPQDEVLAPLSWHKNTFKA | not soluble
MGSDKIHHHHHHMVNKFTQFLVAFISLWMLHSCSGPQKEYVLKVKLNKLTQKDMYEYNLVKDVIFDAQELNVDSIKARSRESFLKGVDEYKNKHNAAAAVPLFKQSILTFPDAKTYYELGNALMELNTEASLDESIKAYRVAEELDIKPIASVYYKMACAQNMIGTLKKSDEDEYMVISYLRKSFINGFYDTLTLAKDTRINSILSTMSYKTLLRELESFKYKEDRNGLFELFKQAYPRPVEFEAALTDLTQYENKESISYDFAVFVPEMQNTEFGREVSNDFFYNALVQETPAYTALIYTSVSFWGDHDALMPSFTSLVTYDPMGIIIDRKLIACQCSAEKVKTVKIKDNKVYVEDFKRIWKQPIDKVSFDDNEVDKFESLAKLTYTINEDGTIQASEIPANYMDTVITKDQSKNTPQ | not soluble
MNSIQIADETYVAADAARVSAAVADRCSWRRWWPDLRLQVTEDRADKGIRWTVTGALTGTMEIWLEPSMDGVLLHYFLHAEPTGVAAWQLARMNLARMTHHRRVAGKKMAFEVKTVLERSRPIGVSPVT | not soluble
MGSDKIHHHHHHMIDEHHIDALTKLLGDKGVVTRREDMEAYEAGARYDRGRAAAVLRPVTTEEVSAAVGYCVRSGIALIPQSGNTGLVSGSTPDESGSEVVVSLDRLTRQFALDLDNRSVRVDAGFRLSELNRRLEEHGLFFPIDLGADPRIGGMIATNTGGSRFLKYGDVRRNTLGLKVVLADEAGTVLDLGSDLRKNNTGVDWKQIFIGTSGAFGIVTECVLNLERLPKQTATAFLVPASGAHVLPLLKAMEERLGAYLSAFEGMSRNAIAAAFAHVPALKNPFQGGKVPDYVILAEISRTSSPREGEQPLDAVLESVLAEIWEMEEVLLADALVGPPHEIWALRHALSEGVKHLGKLIAFDLSFRRGDIMAFCDHMKTEMPEKFPGVTVCDFGHIGDGGVHFNLVVAKDSPLLADATFEQRLREWVFAVAVEQYHGSFSAEHALGRRNQAFYDLYTPEKLKNMAAGLKTLTSPGKLGSVRFG | not soluble
